Like-named read-outs stand apart in the source and are kept apart here.
T1: IL-2Rβ/γc complex (intermediate affinity receptor) on primary human CD8+ T cells (human, UniProt P14784 27-551; P31785 23-369)
T1 sequence (looked up) 1: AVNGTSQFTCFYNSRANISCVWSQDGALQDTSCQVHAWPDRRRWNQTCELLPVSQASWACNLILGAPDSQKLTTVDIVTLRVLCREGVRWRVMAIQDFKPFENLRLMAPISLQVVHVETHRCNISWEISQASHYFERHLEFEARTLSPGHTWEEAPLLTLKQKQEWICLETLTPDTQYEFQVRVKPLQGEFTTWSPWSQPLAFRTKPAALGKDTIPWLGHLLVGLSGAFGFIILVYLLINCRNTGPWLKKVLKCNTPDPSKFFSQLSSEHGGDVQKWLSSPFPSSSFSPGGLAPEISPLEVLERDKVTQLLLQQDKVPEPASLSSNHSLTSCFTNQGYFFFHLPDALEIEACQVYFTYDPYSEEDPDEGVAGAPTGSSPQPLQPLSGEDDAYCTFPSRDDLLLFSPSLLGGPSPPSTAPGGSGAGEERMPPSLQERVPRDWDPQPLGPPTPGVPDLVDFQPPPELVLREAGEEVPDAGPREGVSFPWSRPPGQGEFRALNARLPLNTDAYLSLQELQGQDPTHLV
T1 sequence (looked up) 2: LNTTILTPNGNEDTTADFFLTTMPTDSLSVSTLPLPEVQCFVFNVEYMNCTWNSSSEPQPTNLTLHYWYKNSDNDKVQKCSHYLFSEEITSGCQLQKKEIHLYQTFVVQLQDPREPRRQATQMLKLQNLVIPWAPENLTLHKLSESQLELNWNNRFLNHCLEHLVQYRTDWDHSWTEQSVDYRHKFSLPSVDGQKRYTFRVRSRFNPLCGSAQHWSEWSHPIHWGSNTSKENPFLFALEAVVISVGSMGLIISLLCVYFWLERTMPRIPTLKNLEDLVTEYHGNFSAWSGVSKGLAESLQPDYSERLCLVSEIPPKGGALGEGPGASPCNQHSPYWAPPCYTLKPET

T2: IL-2Rα/β/γc complex (high affinity receptor) on human activated CD8+ T cells (human, UniProt P01589 22-272; P14784 27-551; P31785 23-369)
T2 sequence (looked up) 1: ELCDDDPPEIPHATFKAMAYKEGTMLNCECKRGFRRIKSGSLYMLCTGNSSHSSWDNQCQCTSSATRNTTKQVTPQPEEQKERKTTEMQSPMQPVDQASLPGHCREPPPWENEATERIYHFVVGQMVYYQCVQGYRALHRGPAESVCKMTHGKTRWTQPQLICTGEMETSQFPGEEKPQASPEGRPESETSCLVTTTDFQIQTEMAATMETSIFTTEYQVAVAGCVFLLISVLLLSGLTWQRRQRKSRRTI
T2 sequence (looked up) 2: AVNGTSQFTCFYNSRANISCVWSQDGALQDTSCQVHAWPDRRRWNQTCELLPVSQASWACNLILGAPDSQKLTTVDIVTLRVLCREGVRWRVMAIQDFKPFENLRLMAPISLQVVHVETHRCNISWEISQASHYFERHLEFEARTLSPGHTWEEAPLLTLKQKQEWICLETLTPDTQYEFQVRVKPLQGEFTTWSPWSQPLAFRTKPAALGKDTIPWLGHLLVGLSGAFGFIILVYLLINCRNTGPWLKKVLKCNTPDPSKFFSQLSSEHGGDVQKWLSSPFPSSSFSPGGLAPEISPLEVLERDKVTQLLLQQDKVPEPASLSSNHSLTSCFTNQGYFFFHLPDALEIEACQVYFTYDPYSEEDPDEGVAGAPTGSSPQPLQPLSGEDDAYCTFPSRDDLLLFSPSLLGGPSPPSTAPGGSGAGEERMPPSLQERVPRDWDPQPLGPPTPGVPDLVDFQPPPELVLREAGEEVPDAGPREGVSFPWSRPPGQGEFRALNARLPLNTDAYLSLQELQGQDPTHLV
T2 sequence (looked up) 3: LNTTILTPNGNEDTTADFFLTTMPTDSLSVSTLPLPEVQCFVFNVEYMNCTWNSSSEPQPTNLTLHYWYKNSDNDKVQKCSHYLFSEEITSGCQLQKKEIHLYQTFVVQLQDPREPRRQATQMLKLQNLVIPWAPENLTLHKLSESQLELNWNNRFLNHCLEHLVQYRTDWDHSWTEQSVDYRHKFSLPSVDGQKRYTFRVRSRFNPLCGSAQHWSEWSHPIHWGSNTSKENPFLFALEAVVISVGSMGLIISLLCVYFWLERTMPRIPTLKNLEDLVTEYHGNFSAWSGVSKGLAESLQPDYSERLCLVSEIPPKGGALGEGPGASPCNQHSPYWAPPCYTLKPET


Experiments:
Assay in all cases: cell-based or functional assay
[1] = molecular target: T1, IL-2Rβ/γc complex (intermediate …)
[2] = molecular target: T2, IL-2Rα/β/γc complex (high affinity …)
[3] = molecular target: PD-1 (on CHO-PD1 engineered cell line; on activated CD8+ T cells) (UniProt Q15116 25-288, limits assumed)
[4] = molecular target: T1, IL-2Rβ/γc complex (intermediate …); remark: listed apart in the source
[5] = molecular target: T2, IL-2Rα/β/γc complex (high affinity …); remark: listed apart in the source

Potency reduction, pSTAT5, human primary CD8+ T [1] [fold] | pSTAT5 EC50, human primary CD8+ T [1] [nM] | Potency reduction, pSTAT5, human activated CD8+ T (CD25 positive and PD-1 positive) [2] [fold] | pSTAT5 EC50, human activated CD8+ T (CD25 positive and PD-1 positive) [2] [nM] | PD-1+/PD-1- ratio (pSTAT5 potency, activated versus primary CD8+ T) [3] [fold] | Potency reduction, pSTAT5, human primary CD8+ T [4] [fold] | pSTAT5 EC50, human primary CD8+ T [4] [nM] | Potency reduction, pSTAT5, human activated CD8+ T [5] [fold] | pSTAT5 EC50, human activated CD8+ T [5] [nM] | Binder
56.8 | 809 | 44.3 | 1.21 | 669 | – | – | – | – | W3XX115-T2U3.E44-20.uIgG4V322 (Fc fusion) APTSSSTKKTQLQLEHLLLDLQMILNGINNYKNPKLTWMLTFKFYMPKKATELKHLQCLEEELKPLEEVLNLAQSKNFHLRPRDLISNINVIVLELKGSETTFMCEYADETATIVEFLNRWITFCQSIIESKYGPPCPPCPAPEAAGGPSVFLFPPKPKDTLMISRTPEVTCVVVDVSQEDPEVQFNWYVDGVEVHNAKTKPREEQFNSTYRVVSVLTVLHQDWLNGKEYKCKVSNKGLPSSIEKTISKAKGQPREPQVYTLPPCQEEMTKNQVSLWCLVKGFYPSDIAVEWESNGQPENNYKTTPPVLDSDGSFFLYSRLTVDKSRWQEGNVFSCSVMHEALHNHYTQKSLSLSLGK heavy: QVQLVQSGAEVKKPGSSVKVSCKASGFTFTTYYISWVRQAPGQGLEYLGYINMGSGGTNYNEKFKGRVTITADKSTSTAYMELSSLRSEDTAVYYCAIIGYFDYWGQGTMVTVSSASTKGPSVFPLAPCSRSTSESTAALGCLVKDYFPEPVTVSWNSGALTSGVHTFPAVLQSSGLYSLSSVVTVPSSSLGTKTYTCNVDHKPSNTKVDKRVESKYGPPCPPCPAPEAAGGPSVFLFPPKPKDTLMISRTPEVTCVVVDVSQEDPEVQFNWYVDGVEVHNAKTKPREEQFNSTYRVVSVLTVLHQDWLNGKEYKCKVSNKGLPSSIEKTISKAKGQPREPQVCTLPPSQEEMTKNQVSLSCAVKGFYPSDIAVEWESNGQPENNYKTTPPVLDSDGSFFLVSRLTVDKSRWQEGNVFSCSVMHEALHNHYTQKSLSLSLGK light: DVVMTQSPLSLPVTLGQPASISCRSSQSLLDSDGGTYLYWFQQRPGQSPRRLIYLVSTLGSGVPDRFSGSGSGTDFTLKISRVEAEDVGVYYCMQLTHWPYTFGQGTKLEIKRTVAAPSVFIFPPSDEQLKSGTASVVCLLNNFYPREAKVQWKVDNALQSGNSQESVTEQDSKDSTYSLSSTLTLSKADYEKHKVYACEVTHQGLSSPVTKSFNRGEC
26.2 | 373 | 48.6 | 1.32 | 283 | – | – | – | – | W3XX115-T2U3.E44-33.uIgG4V322 (Fc fusion) APTSSSTKKTQLQLEHLLLDLQMILNGINNYKNPKLTWMLTFKFYMPKKATELKHLQCLEEELKPLEEVLNLAQSKNFHLRPRDLISNINVIVLELKGSETTFMCEYADETATIVEFLNRWITFCQSILESKYGPPCPPCPAPEAAGGPSVFLFPPKPKDTLMISRTPEVTCVVVDVSQEDPEVQFNWYVDGVEVHNAKTKPREEQFNSTYRVVSVLTVLHQDWLNGKEYKCKVSNKGLPSSIEKTISKAKGQPREPQVYTLPPCQEEMTKNQVSLWCLVKGFYPSDIAVEWESNGQPENNYKTTPPVLDSDGSFFLYSRLTVDKSRWQEGNVFSCSVMHEALHNHYTQKSLSLSLGK heavy: QVQLVQSGAEVKKPGSSVKVSCKASGFTFTTYYISWVRQAPGQGLEYLGYINMGSGGTNYNEKFKGRVTITADKSTSTAYMELSSLRSEDTAVYYCAIIGYFDYWGQGTMVTVSSASTKGPSVFPLAPCSRSTSESTAALGCLVKDYFPEPVTVSWNSGALTSGVHTFPAVLQSSGLYSLSSVVTVPSSSLGTKTYTCNVDHKPSNTKVDKRVESKYGPPCPPCPAPEAAGGPSVFLFPPKPKDTLMISRTPEVTCVVVDVSQEDPEVQFNWYVDGVEVHNAKTKPREEQFNSTYRVVSVLTVLHQDWLNGKEYKCKVSNKGLPSSIEKTISKAKGQPREPQVCTLPPSQEEMTKNQVSLSCAVKGFYPSDIAVEWESNGQPENNYKTTPPVLDSDGSFFLVSRLTVDKSRWQEGNVFSCSVMHEALHNHYTQKSLSLSLGK light: DVVMTQSPLSLPVTLGQPASISCRSSQSLLDSDGGTYLYWFQQRPGQSPRRLIYLVSTLGSGVPDRFSGSGSGTDFTLKISRVEAEDVGVYYCMQLTHWPYTFGQGTKLEIKRTVAAPSVFIFPPSDEQLKSGTASVVCLLNNFYPREAKVQWKVDNALQSGNSQESVTEQDSKDSTYSLSSTLTLSKADYEKHKVYACEVTHQGLSSPVTKSFNRGEC
– | – | – | – | – | 2.7 | 300 | 14.7 | 0.25 | W3XX115-T2U0.E44-48.uIgG4V322 (Fc fusion) APTSSSTKKTQLQLEHLLLDLQMILNGINNYKNPKLTRMLTFKFYMPKKATELKHLQCLEEELKPLEEVLNLAQSKNFHLRPRDLISNINVIVLELKGSETTFMCEYADETATIVEFLNRWYTFCQSILESKYGPPCPPCPAPEAAGGPSVFLFPPKPKDTLMISRTPEVTCVVVDVSQEDPEVQFNWYVDGVEVHNAKTKPREEQFNSTYRVVSVLTVLHQDWLNGKEYKCKVSNKGLPSSIEKTISKAKGQPREPQVYTLPPCQEEMTKNQVSLWCLVKGFYPSDIAVEWESNGQPENNYKTTPPVLDSDGSFFLYSRLTVDKSRWQEGNVFSCSVMHEALHNHYTQKSLSLSLG heavy: EIQLQQSGPELVKPGASVKVSCKASGYSFTDYNMYWVKQSHGESLEWIGYIDPYNGGTRYNQKFKGKATLTVDKSSSTAFMHLNSLTSEDSAVYYCARNGHWDGAWFAYWGQGTLVTVSAASTKGPSVFPLAPCSRSTSESTAALGCLVKDYFPEPVTVSWNSGALTSGVHTFPAVLQSSGLYSLSSVVTVPSSSLGTKTYTCNVDHKPSNTKVDKRVESKYGPPCPPCPAPEAAGGPSVFLFPPKPKDTLMISRTPEVTCVVVDVSQEDPEVQFNWYVDGVEVHNAKTKPREEQFNSTYRVVSVLTVLHQDWLNGKEYKCKVSNKGLPSSIEKTISKAKGQPREPQVCTLPPSQEEMTKNQVSLSCAVKGFYPSDIAVEWESNGQPENNYKTTPPVLDSDGSFFLVSRLTVDKSRWQEGNVFSCSVMHEALHNHYTQKSLSLSLG light: DIQMNQSPSSLSASLGDTITITCHASQNINVWLSWYQQKPGNIPKLLIYKASNLHTGVPSRFSGSRSGTGFTLTISSLQPEDIATYYCHQGQSYPFTFGSGTKLEIKRTVAAPSVFIFPPSDEQLKSGTASVVCLLNNFYPREAKVQWKVDNALQSGNSQESVTEQDSKDSTYSLSSTLTLSKADYEKHKVYACEVTHQGLSSPVTKSFNRGEC
– | – | – | – | – | 3.8 | 425 | 22.2 | 0.38 | W3XX115-T2U0.E44-49.uIgG4V322 (Fc fusion) APTSSSTKKTQLQLEHLLLDLQMILNGINNYDNPKLTRMLTFKFYMPKKATELKHLQCLEEELKPLEEVLNLAQSKNFHLRPRDLISNINVIVLELKGSETTFMCEYADETATIVEFLNRWITFCQSILESKYGPPCPPCPAPEAAGGPSVFLFPPKPKDTLMISRTPEVTCVVVDVSQEDPEVQFNWYVDGVEVHNAKTKPREEQFNSTYRVVSVLTVLHQDWLNGKEYKCKVSNKGLPSSIEKTISKAKGQPREPQVYTLPPCQEEMTKNQVSLWCLVKGFYPSDIAVEWESNGQPENNYKTTPPVLDSDGSFFLYSRLTVDKSRWQEGNVFSCSVMHEALHNHYTQKSLSLSLG heavy: EIQLQQSGPELVKPGASVKVSCKASGYSFTDYNMYWVKQSHGESLEWIGYIDPYNGGTRYNQKFKGKATLTVDKSSSTAFMHLNSLTSEDSAVYYCARNGHWDGAWFAYWGQGTLVTVSAASTKGPSVFPLAPCSRSTSESTAALGCLVKDYFPEPVTVSWNSGALTSGVHTFPAVLQSSGLYSLSSVVTVPSSSLGTKTYTCNVDHKPSNTKVDKRVESKYGPPCPPCPAPEAAGGPSVFLFPPKPKDTLMISRTPEVTCVVVDVSQEDPEVQFNWYVDGVEVHNAKTKPREEQFNSTYRVVSVLTVLHQDWLNGKEYKCKVSNKGLPSSIEKTISKAKGQPREPQVCTLPPSQEEMTKNQVSLSCAVKGFYPSDIAVEWESNGQPENNYKTTPPVLDSDGSFFLVSRLTVDKSRWQEGNVFSCSVMHEALHNHYTQKSLSLSLG light: DIQMNQSPSSLSASLGDTITITCHASQNINVWLSWYQQKPGNIPKLLIYKASNLHTGVPSRFSGSRSGTGFTLTISSLQPEDIATYYCHQGQSYPFTFGSGTKLEIKRTVAAPSVFIFPPSDEQLKSGTASVVCLLNNFYPREAKVQWKVDNALQSGNSQESVTEQDSKDSTYSLSSTLTLSKADYEKHKVYACEVTHQGLSSPVTKSFNRGEC

Reference: patent US20260232769A1 (WUXI BIOLOGICS IRELAND, published 2026)
